Values belong to the molecule of their own block, whether it stands above or below them.
Legend:
[1] = biological target: ED-B domain of human fibronectin, recombinant, with C-terminal six-histidine tag (human) (UniProt P02751); assay: ELISA on coated ED-B, Scatchard assay (Beatty et al.)
[2] = biological target: T1, ED-B domain of human fibronectin, recombinant, with C-terminal six-histidine tag (human, UniProt P02751 1266-1356); assay: direct ELISA on coated ED-B, Scatchard analysis (Beatty et al.)
T1 construct: Expressed in E. coli from pET-22b(+) (EcoRI/NotI); residues from the vector between ED-B and the tag are not described; also called EDB antigen; antigen ED-B
T1 sequence (P02751 other isoform, or with tags, fused parts or gaps limits assumed): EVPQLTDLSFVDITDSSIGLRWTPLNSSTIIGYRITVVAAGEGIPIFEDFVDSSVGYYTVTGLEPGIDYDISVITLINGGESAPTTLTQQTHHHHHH

Sequence of ED-B domain of human fibronectin, recombinant, with C-terminal six-histidine tag (human) (P02751 other isoform, or with tags, fused parts or gaps limits assumed): as above

- Kd [1]: 6 nM
Molecule: L19-Fc (Fc fusion)

- affinity relative to L19 [2]: ~3 fold
B1: A11 antibody (Fc fusion)
chain: EVQLLESGGGLVQPGGSLRLSCAASGFTFSSYAMSWVRQAPGKGLEWVSRISPSGSSTYYADSVKGRFTISRDNSKNTLYLQMNSLRAEDTAVYYCARRMSYFDYWGQGTLVTVSSGGGGSGGGGSGGGGSSQSALTQPASVSGSPGQSITISCSGDSLGIGSNNYVSWYQQHPGKAPKLMIYDDNKRPSGVSNRFSGSKSGNTASLTISGLQAEDEADYYCQSWDGRQPVFGGGTKLTVLG
notes: Assayed as purified Fc-containing antibody from mammalian cells
